From US20260055205A1 (published 2026)

B1: CD3.241 (bispecific antibody, V domains shown)
VH: EVQLVESGGGIVQPGGSLRLSCAASGFTFNTYAMNWVRQAPGKGLEWVARIRSKTNNYATTYADSVKDRFTISRDDSKNTVYLQMNSLKTEDTAVYYCVRHENFGNSYVSWFAHWGQGTLVTVSS
VL: ELVVTQEPSLTVSPGGTVTLTCRSSNGAVTSSNYANWVQQKPGQAPRGLIGGTNKRAPGTPARFSGSLLGGKAALTLSGVQPEDEAVYYCALWYPNLWVFGGGTKLTVL
notes: paTCE with PSMA.262; also called AC3672
B2: CD3.254 (bispecific antibody, V domains shown)
VH: EVQLVESGGGIVQPGGSLRLSCAASGFTFNTYAMNWVRQAPGKGLEWVGRIRTKYNNYATTYADSVKDRFTISRDDSKNTVYLQMNELKTEDTAVYYCVRHENFGNSYVSWFAHWGQGTLVTVSS
VL: ELVVTQEPSLTVSPGGTVTLTCRSSNGAVTSSNYANWVQQKPGQAPRGLIGGTNKRAPGTPARFSGSLLGGKAALTLSGVQPEDEAVYYCALWYPNLWVFGGGTKLTVL
notes: paTCE with PSMA.262; also called AC3685
B3: CD3.247 (bispecific antibody, V domains shown)
VH: EVQLVESGGGIVQPGGSLRLSCAASGFTFNTYAMNWVRQAPGKGLEWVARIRSKRNNYATTYADSVKDRFTISRDDSKNTLYLQMNSLKTEDTAVYYCVRHENFGNSYVSWFAHWGQGTLVTVSS
VL: ELVVTQEPSLTVSPGGTVTLTCRSSNGAVTSSNYANWVQQKPGQAPRGLIGGTNKRAPGTPARFSGSLLGGKAALTLSGVQPEDEAVYYCALWYPNLWVFGGGTKLTVL
notes: paTCE with PSMA.262; also called AC3678
B4: CD3.260 (bispecific antibody, V domains shown)
VH: EVQLVESGGGIVQPGGSLRLSCAASGFTFNTYAMNWVRQAPGKGLEWVGRIRSKKNNYATTYADSVKDRFTISRDDSKNTLYLQMNSLKTEDTAVYYCVRHENFGNSYVSWFAHWGQGTLVTVSS
VL: ELVVTQEPSLTVSPGGTVTLTCRSSNGAVTSSNYANWVQQKPGQAPRGLIGGTNKRAPGTPARFSGSLLGGKAALTLSGVQPEDEAVYYCALWYPNLWVFGGGTKLTVL
notes: paTCE with PSMA.262; also called AC3691
B5: CD3.259 (bispecific antibody, V domains shown)
VH: EVQLVESGGGIVQPGGSLRLSCAASGFTFNTYAMNWVRQAPGKGLEWVGRIRSKRNNYATTYADSVKDRFTISRDDSKNTLYLQMNSLKTEDTAVYYCVRHENFGNSYVSWFAHWGQGTLVTVSS
VL: ELVVTQEPSLTVSPGGTVTLTCRSSNGAVTSSNYANWVQQKPGQAPRGLIGGTNKRAPGTPARFSGSLLGGKAALTLSGVQPEDEAVYYCALWYPNLWVFGGGTKLTVL
notes: paTCE with PSMA.262; also called AC3690
B6: CD3.264 (bispecific antibody, V domains shown)
VH: EVQLVESGGGIVQPGGSLKLSCAASGFTFSTYAMNWVRQAPGKGLEWVGRIRTKRNNYATYYADSVKGRFTISRDDSKNTVYLQMNSLKTEDTAVYYCVRHENFGNSYVSWFAHWGQGTLVTVSS
VL: ELVVTQEPSLTVSPGGTVTLTCRSSNGAVTSSNYANWVQQKPGQAPRGLIGGTNKRAPGTPARFSGSLLGGKAALTLSGVQPEDEAVYYCALWYPNLWVFGGGTKLTVL
notes: paTCE with PSMA.262; also called AC3695
B7: CD3.257 (bispecific antibody, V domains shown)
VH: EVQLVESGGGIVQPGGSLRLSCAASGFTFNTYAMNWVRQAPGKGLEWVGRIRSKTNNYATTYADSVKDRFTISRDDSKNTVYLQMNELKTEDTAVYYCVRHENFGNSYVSWFAHWGQGTLVTVSS
VL: ELVVTQEPSLTVSPGGTVTLTCRSSNGAVTSSNYANWVQQKPGQAPRGLIGGTNKRAPGTPARFSGSLLGGKAALTLSGVQPEDEAVYYCALWYPNLWVFGGGTKLTVL
notes: paTCE with PSMA.262; also called AC3688
B8: CD3.249 (bispecific antibody, V domains shown)
VH: EVQLVESGGGIVQPGGSLRLSCAASGFTFNTYAMNWVRQAPGKGLEWVARIRSKTNNYATTYADSVKDRFTISRDDSKNTLYLQMNSLKTEDTAVYYCVRHENFGNSYVSWFAHWGQGTLVTVSS
VL: ELVVTQEPSLTVSPGGTVTLTCRSSNGAVTSSNYANWVQQKPGQAPRGLIGGTNKRAPGTPARFSGSLLGGKAALTLSGVQPEDEAVYYCALWYPNLWVFGGGTKLTVL
notes: paTCE with PSMA.262; also called AC3680
B9: CD3.255 (bispecific antibody, V domains shown)
VH: EVQLVESGGGIVQPGGSLRLSCAASGFTFNTYAMNWVRQAPGKGLEWVGRIRSKRNNYATTYADSVKDRFTISRDDSKNTVYLQMNELKTEDTAVYYCVRHENFGNSYVSWFAHWGQGTLVTVSS
VL: ELVVTQEPSLTVSPGGTVTLTCRSSNGAVTSSNYANWVQQKPGQAPRGLIGGTNKRAPGTPARFSGSLLGGKAALTLSGVQPEDEAVYYCALWYPNLWVFGGGTKLTVL
notes: paTCE with PSMA.262; also called AC3686
B10: CD3.262 (bispecific antibody, V domains shown)
VH: EVQLVESGGGIVQPGGSLRLSCAASGFTFNTYAMNWVRQAPGKGLEWVGRIRSKRNNYATTYADSVKDRFTISRDDSKNTLYLQMNELKTEDTAVYYCVRHENFGNSYVSWFAHWGQGTLVTVSS
VL: ELVVTQEPSLTVSPGGTVTLTCRSSNGAVTSSNYANWVQQKPGQAPRGLIGGTNKRAPGTPARFSGSLLGGKAALTLSGVQPEDEAVYYCALWYPNLWVFGGGTKLTVL
notes: paTCE with PSMA.262; also called AC3693
B11: CD3.244 (bispecific antibody, V domains shown)
VH: EVQLVESGGGIVQPGGSLRLSCAASGFTFNTYAMNWVRQAPGKGLEWVGRIRSKYNNGATYYADSVKGRFTISRDDSKNTLYLQMNSLKTEDTAVYYCVRHENFGNSYVSWFAHWGQGTLVTVSS
VL: ELVVTQEPSLTVSPGGTVTLTCRSSNGAVTSSNYANWVQQKPGQAPRGLIGGTNKRAPGTPARFSGSLLGGKAALTLSGVQPEDEAVYYCALWYPNLWVFGGGTKLTVL
notes: paTCE with PSMA.262; also called AC3675
B12: CD3.252 (bispecific antibody, V domains shown)
VH: EVQLVESGGGIVQPGGSLRLSCAASGFTFNTYAMNWVRQAPGKGLEWVGRIRSKKNNYATTYADSVKDRFTISRDDSKNTVYLQMNSLKTEDTAVYYCVRHENFGNSYVSWFAHWGQGTLVTVSS
VL: ELVVTQEPSLTVSPGGTVTLTCRSSNGAVTSSNYANWVQQKPGQAPRGLIGGTNKRAPGTPARFSGSLLGGKAALTLSGVQPEDEAVYYCALWYPNLWVFGGGTKLTVL
notes: paTCE with PSMA.262; also called AC3683
B13: CD3.242 (bispecific antibody, V domains shown)
VH: EVQLVESGGGIVQPGGSLRLSCAASGFTFNTYAMNWVRQAPGKGLEWVGRIRSKYNDYATYYADSVKGRFTISRDDSKNTLYLQMNSLKTEDTAVYYCVRHENFGNSYVSWFAHWGQGTLVTVSS
VL: ELVVTQEPSLTVSPGGTVTLTCRSSNGAVTSSNYANWVQQKPGQAPRGLIGGTNKRAPGTPARFSGSLLGGKAALTLSGVQPEDEAVYYCALWYPNLWVFGGGTKLTVL
notes: paTCE with PSMA.262; also called AC3673
B14: CD3.253 (bispecific antibody, V domains shown)
VH: EVQLVESGGGIVQPGGSLRLSCAASGFTFNTYAMNWVRQAPGKGLEWVGRIRSKTNNYATTYADSVKDRFTISRDDSKNTVYLQMNSLKTEDTAVYYCVRHENFGNSYVSWFAHWGQGTLVTVSS
VL: ELVVTQEPSLTVSPGGTVTLTCRSSNGAVTSSNYANWVQQKPGQAPRGLIGGTNKRAPGTPARFSGSLLGGKAALTLSGVQPEDEAVYYCALWYPNLWVFGGGTKLTVL
notes: paTCE with PSMA.262; also called AC3684
B15: CD3.245 (bispecific antibody, V domains shown)
VH: EVQLVESGGGIVQPGGSLRLSCAASGFTFNTYAMNWVRQAPGKGLEWVGRIRSKYNNGATYYADSVKGRFTISRDDSKNTLYLQMNELKTEDTAVYYCVRHENFGNSYVSWFAHWGQGTLVTVSS
VL: ELVVTQEPSLTVSPGGTVTLTCRSSNGAVTSSNYANWVQQKPGQAPRGLIGGTNKRAPGTPARFSGSLLGGKAALTLSGVQPEDEAVYYCALWYPNLWVFGGGTKLTVL
notes: paTCE with PSMA.262; also called AC3676
B16: CD3.258 (bispecific antibody, V domains shown)
VH: EVQLVESGGGIVQPGGSLRLSCAASGFTFNTYAMNWVRQAPGKGLEWVGRIRTKYNNYATTYADSVKDRFTISRDDSKNTLYLQMNSLKTEDTAVYYCVRHENFGNSYVSWFAHWGQGTLVTVSS
VL: ELVVTQEPSLTVSPGGTVTLTCRSSNGAVTSSNYANWVQQKPGQAPRGLIGGTNKRAPGTPARFSGSLLGGKAALTLSGVQPEDEAVYYCALWYPNLWVFGGGTKLTVL
notes: paTCE with PSMA.262; also called AC3689
B17: CD3.250 (bispecific antibody, V domains shown)
VH: EVQLVESGGGIVQPGGSLRLSCAASGFTFNTYAMNWVRQAPGKGLEWVGRIRTKYNNYATTYADSVKDRFTISRDDSKNTVYLQMNSLKTEDTAVYYCVRHENFGNSYVSWFAHWGQGTLVTVSS
VL: ELVVTQEPSLTVSPGGTVTLTCRSSNGAVTSSNYANWVQQKPGQAPRGLIGGTNKRAPGTPARFSGSLLGGKAALTLSGVQPEDEAVYYCALWYPNLWVFGGGTKLTVL
notes: paTCE with PSMA.262; also called AC3681
B18: CD3.248 (bispecific antibody, V domains shown)
VH: EVQLVESGGGIVQPGGSLRLSCAASGFTFNTYAMNWVRQAPGKGLEWVARIRSKKNNYATTYADSVKDRFTISRDDSKNTLYLQMNSLKTEDTAVYYCVRHENFGNSYVSWFAHWGQGTLVTVSS
VL: ELVVTQEPSLTVSPGGTVTLTCRSSNGAVTSSNYANWVQQKPGQAPRGLIGGTNKRAPGTPARFSGSLLGGKAALTLSGVQPEDEAVYYCALWYPNLWVFGGGTKLTVL
notes: paTCE with PSMA.262; also called AC3679
B19: CD3.261 (bispecific antibody, V domains shown)
VH: EVQLVESGGGIVQPGGSLRLSCAASGFTFNTYAMNWVRQAPGKGLEWVGRIRSKTNNYATTYADSVKDRFTISRDDSKNTLYLQMNSLKTEDTAVYYCVRHENFGNSYVSWFAHWGQGTLVTVSS
VL: ELVVTQEPSLTVSPGGTVTLTCRSSNGAVTSSNYANWVQQKPGQAPRGLIGGTNKRAPGTPARFSGSLLGGKAALTLSGVQPEDEAVYYCALWYPNLWVFGGGTKLTVL
notes: paTCE with PSMA.262; also called AC3692
B20: CD3.263 (bispecific antibody, V domains shown)
VH: EVQLVESGGGIVQPGGSLKLSCAASGFTFNTYAMNWVRQAPGKGLEWVGRIRTKRNNYATYYADSVKGRFTISRDDSKNTVYLQMNSLKTEDTAVYYCVRHENFGNSYVSWFAHWGQGTLVTVSS
VL: ELVVTQEPSLTVSPGGTVTLTCRSSNGAVTSSNYANWVQQKPGQAPRGLIGGTNKRAPGTPARFSGSLLGGKAALTLSGVQPEDEAVYYCALWYPNLWVFGGGTKLTVL
notes: paTCE with PSMA.262; also called AC3694
B21: CD3.246 (bispecific antibody, V domains shown)
VH: EVQLVESGGGIVQPGGSLRLSCAASGFTFNTYAMNWVRQAPGKGLEWVARIRTKYNNYATTYADSVKDRFTISRDDSKNTLYLQMNSLKTEDTAVYYCVRHENFGNSYVSWFAHWGQGTLVTVSS
VL: ELVVTQEPSLTVSPGGTVTLTCRSSNGAVTSSNYANWVQQKPGQAPRGLIGGTNKRAPGTPARFSGSLLGGKAALTLSGVQPEDEAVYYCALWYPNLWVFGGGTKLTVL
notes: paTCE with PSMA.262; also called AC3677

What follows are binders tested against T1, human CD3 epsilon (human, UniProt P07766 23-126, limits assumed) (assay: Octet, crude lysate).
T1 construct: also called huCD3e
T1 sequence (P07766 23-126 limits assumed): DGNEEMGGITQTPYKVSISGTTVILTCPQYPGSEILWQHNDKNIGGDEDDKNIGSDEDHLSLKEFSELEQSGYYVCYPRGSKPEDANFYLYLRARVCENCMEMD
Description: Pool 2 consisted of paTCE molecules each containing PSMA.262 and one of 64 CD3.23 mutation combination variants. Stability and affinity of the individually expressed molecules in the form of crude lysate was evaluated by Octet. […] The binding of these anti-CD3 molecules (CD3.227, CD3.228, CD3.229 and CD3.230) to human and cynomolgus CD3 was measured by Octet and the Tm was measured by Differential Scanning Fluorimetry. All variants were paired with PSMA.262 except for CD3.23 which was paired with PSMA.5.

Going from B1 to B2, the Kd falls from 92.6 nM to 32.3 nM (2.9-fold).

First: B3
Second: B4
The Kd of the first is 1.6-fold lower: 28.9 nM for the first, 45.6 nM for the second. The first binds more tightly here.

First: B5
Second: B6
The Kd of the first is 6.5-fold higher: 29.4 nM for the first, 4.5 nM for the second. The second binds more tightly here.

B7 and B8 are within 1.5-fold of each other in Kd: 159 nM for the first, 128 nM for the second.

B9 and B10 are within 1.5-fold of each other in Kd: 22.4 nM for the first, 25.4 nM for the second.

First: B11
Second: B12
The Kd of the first is 1.9-fold higher: 43.6 nM for the first, 22.9 nM for the second.

First: B13
Second: B14
The Kd of the first is 10-fold lower: 7.7 nM for the first, 79.9 nM for the second.

First: B15
Second: B16
The Kd of the first is 2-fold lower: 19.3 nM for the first, 38 nM for the second. The first binds more tightly here.

Compared with B17, B18 is 1.6-fold higher in Kd: 31 nM for the first, 49.2 nM for the second. The first binds more tightly here.

First: B19
Second: B20
The Kd of the first is 13-fold higher: 97 nM for the first, 7.2 nM for the second. The second binds more tightly here.

B21 was tested, and the Kd was 35.2 nM.
